Here are results for one substance from US20190381086A1, “INHIBITION OF NEDDYLATION USING GLYCYL-tRNA SYNTHETASE INHIBITORS” (The Scripps Research Institute, priority 2015, published 2019).

Assay [1] addresses N-terminal GST-tagged GlyRS (human) (UniProt P41250). Kind of assay: biolayer interferometry (Octet), GlyRS immobilized. Background: In BLI a coated tip is dipped into the sample, and binding shifts an interference pattern.
For assay [2] the target is unchanged. The assay is described as follows: biolayer interferometry (Octet), GlyRS immobilized, 30°C.

Chain of N-terminal GST-tagged GlyRS (human) (P41250 55-739): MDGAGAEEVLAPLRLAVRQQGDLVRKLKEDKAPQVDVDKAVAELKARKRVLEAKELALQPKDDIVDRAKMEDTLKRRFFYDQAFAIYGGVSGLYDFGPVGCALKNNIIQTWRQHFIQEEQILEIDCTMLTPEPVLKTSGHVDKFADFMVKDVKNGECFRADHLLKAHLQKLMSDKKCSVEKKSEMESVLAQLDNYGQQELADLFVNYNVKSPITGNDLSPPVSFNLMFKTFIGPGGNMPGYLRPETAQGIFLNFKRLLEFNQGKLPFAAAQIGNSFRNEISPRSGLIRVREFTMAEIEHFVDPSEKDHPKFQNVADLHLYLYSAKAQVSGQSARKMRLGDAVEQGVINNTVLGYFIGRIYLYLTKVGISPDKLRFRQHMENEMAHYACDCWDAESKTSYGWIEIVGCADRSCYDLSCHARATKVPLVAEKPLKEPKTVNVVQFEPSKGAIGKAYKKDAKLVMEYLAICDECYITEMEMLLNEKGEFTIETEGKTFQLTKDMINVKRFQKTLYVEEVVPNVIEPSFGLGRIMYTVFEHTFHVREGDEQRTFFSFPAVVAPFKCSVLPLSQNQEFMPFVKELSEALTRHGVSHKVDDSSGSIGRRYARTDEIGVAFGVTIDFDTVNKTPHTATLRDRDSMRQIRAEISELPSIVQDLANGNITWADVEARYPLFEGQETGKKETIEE

For orientation: Kd means the equilibrium constant for the complex coming apart. Read a low Kd as a tighter complex. Consider “Ubc12^N8: NEDD8-conjugated Ubc12 (C111S, stable ester linkage to His-SUMO-tagged NEDD8) (from UniProt P61081 1-183; Q15843 1-76)”, for which, in assay [1], the fold stronger than the Kd for NEDD8 alone came out at 30 fold and the fold stronger than the Kd for Ubc12 alone was found to be 100 fold. For the same substance, the Kd in assay [2] turned out to be 4.09 nM.
